Patent US20200306385A1 (ADC THERAPEUTICS S A, published 2020)

Target: CD22 (human, UniProt P20273 20-847)
Assay: cell-based or functional assay

B1: Epratuzumab-A (antibody, V domains shown)
VH: QVQLVQSGAEVKKPGSSVKVSCKASGYTFTSYWLHWVRQAPGQGLEWIGYINPRNDYTEYNQNFKDKATITADESTNTAYMELSSLRSEDTAFYFCARRDITTFYWGQG
VL: DIQLTQSPSSLSASVGDRVTMSCKSSQSVLYSANHKNYLAWYQQKPGKAPKLLIYWASTRESGVPSRFSGSGSGTDFTFTISSLQPEDIATYYCHQYLSSWTFGQG
modifications: PBD dimer drug-linker A (SG3246) conjugated to thiols of TCEP-reduced cysteine disulfide bridges; DAR 2.03; which cysteines are modified is not stated
  EC50 (µg/mL), in vitro cytotoxicity (cell survival, Alamar Blue, 4 days) on CD22+ve Daudi cells: 0.0136 µg/mL
  EC50 (µg/mL), in vitro cytotoxicity (cell survival, Alamar Blue, 4 days) on CD22+ve Ramos cells: 0.0332 µg/mL
  EC50 (µg/mL), in vitro cytotoxicity (cell survival, Alamar Blue, 4 days) on CD22+ve WSU-DLCL2 cells: 0.0243 µg/mL
